In patent publication US20230348560A1 one finds luciferase activity of THP1-HLA-G1-GFPffluc targets after 24 h coculture (E:T 5:1 and 1:1) data, which are given here for one substance.

This experiment concerns the target HLA-G1 isoform stably expressed on THP1 cells (human) (UniProt P17693). Briefly: cell-based or functional assay.

With “full length ILT2 (pNT-110 SFG-ILT2-T2A-ΔCD19) (from UniProt Q8NHL6 24-650) (receptor)”, the luciferase activity of THP1-HLA-G1-GFPffluc targets after 24 h coculture (E:T 5:1 and 1:1) is > 100000 light units.
